Data on five molecules can be found in patent US20140087995A1 (published 2014).

Usually IC50 stands for the midpoint of a concentration-inhibition curve.

Where a chain is given by its changes, count along the chain named. Numbered stars: 1 amine (or outer) side, 2 acyl side, 3 side chain; on linkers, the order of the positions; unused ones are H or OH. Bridge positions count the residues as written; N and C are the ends. * marks the point of attachment. C20 diacid = O=C(O)CCCCCCCCCCCCCCCCCCC(=O)*; γGlu = O=C(O)[C@H](CCC(=O)[*:2])N[*:1]

T1: human calcitonin receptor (human, UniProt P30988 25-474)
T1 construct: whole, on cells; also called hCTR; hCT
T1 sequence (looked up): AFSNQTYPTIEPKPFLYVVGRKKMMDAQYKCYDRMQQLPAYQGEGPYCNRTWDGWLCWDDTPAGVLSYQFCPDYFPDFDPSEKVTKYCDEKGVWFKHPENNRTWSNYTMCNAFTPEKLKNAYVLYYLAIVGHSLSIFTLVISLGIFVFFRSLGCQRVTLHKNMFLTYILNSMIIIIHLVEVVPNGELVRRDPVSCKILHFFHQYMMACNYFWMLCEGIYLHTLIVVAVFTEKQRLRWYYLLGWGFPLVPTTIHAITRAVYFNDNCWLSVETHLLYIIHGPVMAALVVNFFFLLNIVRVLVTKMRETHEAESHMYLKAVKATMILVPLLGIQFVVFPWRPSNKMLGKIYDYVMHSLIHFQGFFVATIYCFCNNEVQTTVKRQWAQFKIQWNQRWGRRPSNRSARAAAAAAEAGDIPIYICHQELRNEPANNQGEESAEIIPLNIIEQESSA

B1: N^α1 N^α1-[(4S)-4-carboxy-4-[[(4S)-4-carboxy-4-(19-carboxynonadecanoylamino)butanoyl]amino]butanoyl]-[Glu14,Arg17,Pro21,Pro27]-h-amylin (peptide)
peptide: {C20 diacid-γGlu-γGlu}-KCNTATCATQRLAEFLRHSSPNFGAIPSSTNVGSNTY-NH2
modifications: disulfide 2-7
SMILES: CC[C@H](C)[C@H](NC(=O)[C@H](C)NC(=O)CNC(=O)[C@H](Cc1ccccc1)NC(=O)[C@H](CC(N)=O)NC(=O)[C@@H]1CCCN1C(=O)[C@H](CO)NC(=O)[C@H](CO)NC(=O)[C@H](Cc1c[nH]cn1)NC(=O)[C@H](CCCNC(=N)N)NC(=O)[C@H](CC(C)C)NC(=O)[C@H](Cc1ccccc1)NC(=O)[C@H](CCC(=O)O)NC(=O)[C@H](C)NC(=O)[C@H](CC(C)C)NC(=O)[C@H](CCCNC(=N)N)NC(=O)[C@H](CCC(N)=O)NC(=O)[C@@H](NC(=O)[C@H](C)NC(=O)[C@@H]1CSSC[C@H](NC(=O)[C@H](CCCCN)NC(=O)CC[C@H](NC(=O)CC[C@H](NC(=O)CCCCCCCCCCCCCCCCCCC(=O)O)C(=O)O)C(=O)O)C(=O)N[C@@H](CC(N)=O)C(=O)N[C@@H]([C@@H](C)O)C(=O)N[C@@H](C)C(=O)N[C@@H]([C@@H](C)O)C(=O)N1)[C@@H](C)O)C(=O)N1CCC[C@H]1C(=O)N[C@@H](CO)C(=O)N[C@@H](CO)C(=O)N[C@H](C(=O)N[C@@H](CC(N)=O)C(=O)N[C@H](C(=O)NCC(=O)N[C@@H](CO)C(=O)N[C@@H](CC(N)=O)C(=O)N[C@H](C(=O)N[C@@H](Cc1ccc(O)cc1)C(N)=O)[C@@H](C)O)C(C)C)[C@@H](C)O
notes: also called compound 15
B2: N^α1-[(4S)-4-carboxy-4-(19-carboxynonadecanoylamino)butanoyl]-[Arg17,Pro21,Pro27,His34]-h-amylin (peptide)
peptide: KCNTATCATQRLANFLRHSSPNFGAIPSSTNVGHNTY
modifications: C20 diacid-gGlu on alpha amino group of N-terminal Lys 1; disulfide Cys2-Cys7; C-terminal amide (as human amylin)
notes: also called compound 40
B3: N^α1-[(4S)-4-carboxy-4-(19-carboxynonadecanoylamino)butanoyl]-[Arg17,Pro21,Pro27,Glu35]-h-amylin (peptide)
peptide: B2 peptide with H34S, N35E
modifications: C20 diacid-gGlu on alpha amino group of N-terminal Lys 1; disulfide Cys2-Cys7; C-terminal amide (as human amylin)
notes: also called compound 23
B4: N^α1-[2-[2-[2-[[2-[2-[2-[[(4S)-4-carboxy-4-(19-carboxynonadecanoylamino)butanoyl]amino]ethoxy]ethoxy]acetyl]amino]ethoxy]ethoxy]acetyl]-[Glu14,Arg17,Pro21,Pro27 … (peptide)
peptide: B2 peptide with N14E, H34S
modifications: C20 diacid-gGlu-2xOEG on alpha amino group of N-terminal Lys 1; disulfide Cys2-Cys7; C-terminal amide (as human amylin)
notes: also called compound 19
B5: N^α1-[(4S)-4-carboxy-4-(19-carboxynonadecanoylamino)butanoyl]-[Arg17,Pro21,Pro27,Lys35]-h-amylin (peptide)
peptide: B2 peptide with H34S, N35K
modifications: C20 diacid-gGlu on alpha amino group of N-terminal Lys 1; disulfide Cys2-Cys7; C-terminal amide (as human amylin)
notes: also called compound 34

The target in the experiment is T1, human calcitonin receptor. Description: SPA competition with 125I-calcitonin, membranes of BHK hCTR cells (Assay VII). As for the experimental part: Membranes were prepared in the following way; the cells were rinsed with PBS and incubated with Versene for approximately 5 min before harvesting. The cells were flushed with PBS and the cell-suspension was centrifuged for 5 min at 1000 rpm. Cells were homogenized (Ultrathurrax) in a buffer containing 20 mM Na-HEPES and 10 mM EDTA (pH 7.4) and centrifuged at 20.000 rpm for 15 min. The resulting pellet was resuspended, homogenized and centrifuged (20.000 rpm, 15 min) in a buffer containing 20 mM Na-HEPES and 0.1 mM EDTA (pH 7.4, buffer 2). The resulting pellet was resuspended in buffer 2 and protein concentration was measured (BCA protein Assay, Pierce). The homogenate was kept cold during the whole procedure. The membranes were kept at −80° C. until use. Assay was performed in a 384 well Optiplate (PerkinElmer) in a total volume of 40 ul. Membranes were mixed with SPA beads. Final concentration of membranes 35 ng/μL final and Final concentration of SPA beads was 0.05 mg/well. Test-compounds were dissolved in DMSO and further diluted in assay buffer (50 mM Hepes, pH 7.4, 1 mM CaCl2, 5 mM MgCl₂, 0.1% OA and 0.02% Tween20). […] The final mixture was incubated for 120 min with shaking at 400 rpm at 25° C. prior to centrifugation (1500 rpm, 10 min). Samples were analyzed on TopCounter™ (Packard). The […] was calculated using (one site binding competition analysis) GraphPad Prism5 as a measure of receptor affinity.
Consider B1, for which the 50% inhibitory concentration (IC50) was 0.0155 µM.
In the case of B2 it was 0.0171 µM; in that of B3, 0.0218 µM.
Consider B4, for which the IC50 amounted to 0.0204 µM.
B5: the concentration for half-maximal inhibition (IC50) was determined as 0.0734 µM.
